{
  "source": "paper PMC6715450",
  "about": "(Nature, 2019)",
  "binders": {"B1": {"name": "full-length SidJ (cryo-EM complex) (enzyme)", "chain": "MFGFIKKVLDFFGVDQSEDNPSETAVETTDVSTKIKTTDTTQEESSVKTKTVVPTQPGGSVKPETIAPDQQKKHQIKTETTTSTTKQKGPKVTLMDGHVKQYYFARRGETSTHDTSLPPPVKVLSGRSIPLKEIPFEATRNELVQIYLTSIDKLIKSNKLNSIPSQQIASHYLFLRSLANSETDGIKKNQILSLAKPLGTYLASKEPHVWKMINELIEKSEYPIIHYLKNNRAHSNFMLALIHEYHKEPLTKNQSAFVQKFRDSSVFLFPNPIYTAWLAHSYDEDSSFNPMFRERLSTNFYHSTLTDNLLLRTEPKEVTLSSEHHYKKEKGPIDSSFRYQMSSDRLLRIQGRTLLFSTPQNDVVAVKVQKKGEPKSTLEEEFEMADYLLKHQRRLDVHSKLPQPLGQYSVKKSEILEISRGSLDFERFKTLIDDSKDLEVYVYKAPQSYFTYLHDKNQDLEDLTASVKTNVHDLFVLLREGIVFPQLADIFHTHFGEDEREDKGRYQALVQLLNVLQFQLGRIDKWQKAVEYVNLRSSGLADLGDSLPITSLFTSSDFTKHYFSELLTGGYHPTFFDKSSGTANSLFTGKRRLFGNYLYLNTIAEYLLVIQLTLGSYGDKVTRDMMDKPKKEAVWRELANVMFTSCAEAIHIMTGIPQSRALTLLKQRANIEKHFRQTQFWMTPDYSKLDEDTLQMEQYSIYSGEPEYEFTDKLVSGVGLSVDGVHQDLGGYNRESPLRELEKLLYATVTLIEGTMQLDKEFFKQLEQVEKILSGEIKTDANSCFEAVAQLLDLARPGCHFQKRLVLSYYEEAKLKYPSAPTDAYDSRFQVVARTNAAITIQRFWREARKNLSEKSDIDSEKPESERTTDKRL"}},
  "molecular_target": "human apo-Calmodulin (cryo-EM complex) (human, UniProt P0DP23)",
  "test": "cryo-EM structure",
  "data": [
    {"binder": "B1", "values": [
      {"measurement": "binding result", "value": "binds"}
    ]}
  ]
}
